{
  "source": "patent US11213565B2",
  "about": "“Protein P8 derived from lactic acid bacteria and its use as anti-cancer agent” (CELL BIOTECH CO., LTD., priority 2016, dated 2022)",
  "key": {"[1]": {"test_system": "Colorectal cancer DLD-1 cells", "assay": "Scratch assay, migration of colorectal cancer cells", "assay_type": "cell-based, human", "details": "1 μg/ml daily", "procedure": "Colorectal cancer DLD-1 cells were treated daily with 1 μg/ml of the P8 protein of Example 1 for 1, 3 or 7 days, and then dispensed into each well of a 6-well plate.\nThe dispensed DLD-1 cells were cultured overnight, and then the plate having the cells cultured thereon was scratched with a 200 μl tip. To remove suspended material resulting from the scratch, the plate was washed twice with PBS, and then additionally incubated for 24 hours."}, "[2]": {"test_system": "human colorectal cancer cell line (DLD-1) xenograft", "assay": "Colorectal cancer xenograft model, tumor volume", "assay_type": "in vivo, nude mice", "procedure": "The human colorectal cancer cell line (DLD-1) was transplanted subcutaneously into nude mice, thereby constructing xenograft models. Using the xenograft models, the anticancer activity of the P8 protein of Example 1 was evaluated.\nFirst, for construction of colorectal cancer xenograft models, DLD-1 cells were transplanted subcutaneously into nude mice at a concentration of 1×10^7 cells/100 μl. 10 to 15 Days after the transplantation, the transplanted state of the tumor cells was checked, and mice showing a stable transplanted state were continuously observed. Before tumor's central necrosis occurred, mice showing rapid tumor growth due to supply of sufficient blood were selected, and tumor tissues were collected therefrom. Of the collected tumor tissue, the outer portion in which rapid cell division mainly occurred was cut into a predetermined size (3×3×3 mm), thereby constructing a tumor fragment. Then, the tumor fragment was placed on the tip of a puncture needle (Trocar), and the anterior side of the left rear leg of each animal was incised about 4 mm. The prepared puncture needle was inserted through the incision such that the tip reached the interbody side on the rear side of the left front leg. […] The position of the tumor fragment was determined by touching the skin with hand. […]\nDuring drug administration, the tumor size was measured using Vernier calipers once every two days. […]"}, "[3]": {"test_system": "HT-29 cell line", "assay": "Cell survival rate (WST-8) in HT-29", "assay_type": "cell-based", "details": "0.39 μl/ml to 100 μl/ml, 24 hours", "procedure": "(§1) Each of the colorectal cancer cell line DLD-1 and the HT-29 cell line was cultured in a 96-well plate at a density of 1×10^4 cells/well, and the P8 protein of Example 1 was added thereto at a concentration of 0.39 μl/ml to 100 μl/ml. As a negative control, 0.1% PBS buffer used in protein purification was used. The cells were incubated for 24 hours, and then each well was treated with 100 of a cell survival rate measurement kit (Dojindo Cell count kit WST-8) and incubated for 2 hours. The absorbance of each well at 450 nm was measured using a microplate reader (Amersham, Biorad, USA, Japan), and based on the measured values, cell survival rates were calculated."}, "[4]": {"test_system": "colorectal cancer cell line DLD-1", "assay": "Cell survival rate (WST-8) in DLD-1", "assay_type": "cell-based, human", "details": "0.39 μl/ml to 100 μl/ml, 24 hours", "procedure": "Colorectal cancer DLD-1 cells were cultured in a 96-well plate at a density of 1×10^4 cells/well, and each of active sites 1 to 3 (SEQ ID NOs: 8 to 10) of Example 1-3 was added thereto at a concentration of 10 μg/ml. As a negative control, 0.1% PBS buffer used in protein purification was used. The cells were incubated for 24 hours, and then each well was treated with 100 of a cell survival rate measurement kit (Dojindo Cell count kit WST-8) and incubated for 2 hours. The absorbance of each well at 450 nm was measured using a microplate reader (Amersham, Biorad, USA, Japan), and based on the measured values, cell survival rates were calculated.\nas §1"}, "[5]": {"test_system": "Colorectal cancer DLD-1 cells", "assay": "LIVE/DEAD viability/cytotoxicity staining of DLD-1", "assay_type": "cell-based, human", "details": "1 μg/ml or 10 μg/ml, 24 to 48 hours", "procedure": "(§2) Colorectal cancer DLD-1 cells were cultured in a 6-well plate at a density of 1.5×10^6 cells/well, and a P8 protein of the present invention was added thereto at a concentration of 1 μg/ml or 10 μg/ml. Next, the cells were incubated for 24 to 48 hours, and then washed twice with phosphate buffered saline and treated with 1 ml of a LIVE/DEAD viability/cytotoxicity staining kit, followed by incubation for 20 to 40 minutes. By the staining, living cells were stained green, and dead cells were stained red. The cells were observed under a fluorescent microscope, and the degree of inhibition of viability thereof was analyzed.\nas §2, with “and the” for “and a”, “of Example 1” for “of the present invention”, “μg/ml. Each well was” for “μg/ml. Next, the cells were”, “staining, live” for “staining, living”"}, "[6]": {"test_system": "NIH3T3 cells (mouse embryonic fibroblast cells)", "assay": "Cytotoxicity assay (WST-8) in NIH3T3", "assay_type": "cell-based", "details": "0.39 μg/ml to 100 μg/ml, 24 hours", "procedure": "In order to examine whether the P8 protein of Example 1 is cytotoxic, a cytotoxicity assay was performed using the P8 protein, highly expressed in NIH3T3 cells (mouse embryonic fibroblast cells), and BSA (bovine serum albumin) as a […] control.\nFirst, NIH3T3 cells were cultured in a 96-well plate at a density of 1×10^4 cells/well, and each of BSA and the highly expressed and purified P8 protein was added thereto at a concentration of 0.39 μg/ml to 100 μg/ml. Each well was incubated for 24 hours, and then treated with 100 of a cell survival rate measurement kit (Dojindo Cell count kit WST-8), followed by incubation for 2 hours. The absorbance of each well at 450 nm was measured using a microplate reader (Amersham, Biorad, USA, Japan), and based on the measured values, cell survival rates were calculated."}},
  "data": [
    {"molecule": "P8 protein: 8 KDa protein fragment extracted from Lactobacillus rhamnosus, amino acid sequence SEQ ID NO: 2 (protein, listed as Lactobacillus rhamnosus) MATVDPEKTLFLDEPMNKVFDWSNSEAPVRDALWDYYMEKNSRDTIKTEEEMKPVLDMSDDEVKALAEKVLKK", "values": [
      {"measurement": "decrease of migration rate of the cells compared to untreated control", "setting": "[1]; 1-day treatment", "result": 15.7, "unit": "%"},
      {"measurement": "decrease of migration rate of the cells compared to untreated control", "setting": "[1]; 3-day treatment", "result": 45.9, "unit": "%"},
      {"measurement": "decrease of migration rate of the cells compared to untreated control", "setting": "[1]; 7-day treatment", "result": 58.3, "unit": "%"},
      {"measurement": "cancer growth inhibitory effects compared to conventional anticancer agents", "setting": "[2]; 10 mg/Kg or higher, intraperitoneally twice a week for 4 weeks, vs 5-fluorouracil 10 mg/Kg, oxaliplatin 4 mg/Kg", "result": "superior"},
      {"measurement": "cancer growth compared to negative control group", "setting": "[2]; 1, 5 and 10 mg/Kg intraperitoneally twice a week for 4 weeks", "result": "significantly inhibited"},
      {"measurement": "cell growth inhibitory effect", "setting": "[3]", "result": "about 20%"},
      {"measurement": "cell growth inhibitory effect", "setting": "[4]", "result": "about 20%"},
      {"measurement": "dependence of viability on concentration or time of treatment", "setting": "[5]", "result": "decreased as the concentration or time of treatment with the P8 protein increased"},
      {"measurement": "viability of the cells compared to negative control", "setting": "[5]; fluorescent microscope", "result": "decreased"},
      {"measurement": "cytotoxicity (cell survival rate compared with BSA)", "setting": "[6]", "result": "not cytotoxic"}
    ]}
  ]
}
